Experimental data reported in patent US20240400689A1.

What was measured:
[1] = target: mouse CD276 protein (mouse) (UniProt Q8VE98); test: FACS on CHO-S-mCD276 cells
[2] = target: human CD276 protein (human) (UniProt Q5ZPR3); test: cell-based or functional assay
[3] = target: T1, HUMAN B7H3 (Biacore analyte) (human) (UniProt Q5ZPR3); test: SPR, Biacore 8K, antibody captured, B7H3 as analyte, 1:1 binding
T1 sequence (looked up): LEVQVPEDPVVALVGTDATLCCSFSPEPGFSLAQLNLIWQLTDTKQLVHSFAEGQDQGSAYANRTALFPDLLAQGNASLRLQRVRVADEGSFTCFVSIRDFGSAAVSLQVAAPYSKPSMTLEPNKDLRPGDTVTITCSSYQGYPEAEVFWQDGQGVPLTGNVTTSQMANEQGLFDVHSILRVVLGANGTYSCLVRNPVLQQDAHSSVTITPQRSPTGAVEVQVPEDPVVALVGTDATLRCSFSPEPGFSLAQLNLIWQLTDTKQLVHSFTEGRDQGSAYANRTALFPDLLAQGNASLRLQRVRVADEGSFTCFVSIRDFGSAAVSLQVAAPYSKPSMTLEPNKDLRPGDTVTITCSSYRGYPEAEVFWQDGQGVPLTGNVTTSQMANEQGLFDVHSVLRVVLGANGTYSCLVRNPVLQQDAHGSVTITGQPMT

[4] = target: human CD276 protein (human) (UniProt Q5ZPR3); test: FACS on SKOV3 cells

mouse CD276 protein (mouse), sequence (Q8VE98 29-316): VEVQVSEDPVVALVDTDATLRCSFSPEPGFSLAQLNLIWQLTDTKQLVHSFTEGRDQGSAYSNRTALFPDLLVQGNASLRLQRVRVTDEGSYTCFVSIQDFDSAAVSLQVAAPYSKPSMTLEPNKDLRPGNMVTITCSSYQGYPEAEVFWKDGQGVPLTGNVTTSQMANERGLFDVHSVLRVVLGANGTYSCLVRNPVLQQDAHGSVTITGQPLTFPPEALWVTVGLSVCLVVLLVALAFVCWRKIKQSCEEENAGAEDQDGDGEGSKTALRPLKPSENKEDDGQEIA

FACS MFI [1]	EC50 of antibody induced ADCC effect on SKOV3 [2] [µg/mL]	EC50 of antibody induced CDC effect [2] [nM]	Kd [3] [nM]	koff [3] [s⁻¹]	kon [3] [M⁻¹ s⁻¹]	EC50 [4] [µg/mL]	MFI (Max) [4]	Binder	Top cytotoxicity (%), CDC [2] [%]
3170	–	–	–	–	–	–	–	10-B9-D10-A12 (antibody, V domains shown) VH: EVQLQESGPELVRPGVSVKISCKGSGYTFTDYTMHWVKLSHAKSLEWIGVISTYYGNTNYNQKFKGKATLTVDKSSSTAYMELARLTSEDSAIYYCARASYGSGYGPYYWYFDVWGAGTTVTVSS VL: DIQMTQSPASLFASVGETVTITCRASEKIYSYLAWYFQKQGKSPQFLVYNANALAEGVPSRFSGSGSGTQFSLKINSLQPEDFGTYYCQHHYGTPVTFGAGSKLELK	–
–	0.0864	7.28	3.8	0.000486	128000	0.985	830	Enoblituzumab (antibody, part only; not given: constant regions, V domains shown, not shown: another chain or arm of the molecule) VH: EVQLVESGGGLVQPGGSLRLSCAASGFTFSSFGMHWVRQAPGKGLEWVAYISSDSSAIYYADTVKGRFTISRDNAKNSLYLQMNSLRDEDTAVYYCGRGRENIYYGSRLDYWGQGTTVTVSS VL: DIQLTQSPSFLSASVGDRVTITCKASQNVDTNVAWYQQKPGKAPKALIYSASYRYSGVPSRFSGSGSGTDFTLTISSLQPEDFATYYCQQYNNYPFTFGQGTKLEIK	80.1
